These results are taken from paper PMC11425648.

For the test, the target named is free UbcH8 (Ube2L6), GST tag removed (human). Put plainly: SAXS; free UbcH8 (GST removed) at 300 μM, 10 °C, six 10-min frames; dimer crystal structure 1WZV fitted to the dummy atom model.

In turn, “free UbcH8 (Ube2L6), GST tag removed (enzyme)” returned a stoichiometry N of 2.
